Data reported in US11427869B2, “T cell balance gene expression, compositions of matters and methods of use thereof” (THE BROAD INSTITUTE, INC., priority 2015, dated 2022).

Test system: Th17 cells
Assay: qPCR of Cd5l expression in differentiated T cells
Type: cell-based, mouse
Conditions: naïve T cells differentiated with TGF-β1+IL-6 for 48h, expanded in IL-23 in fresh media, 72h
Description: FIG. 16A-16I. CD5L is a candidate regulator of Th17 cell functional states. (FIG. 16A-FIG. 16C) Single-cell RNA-seq analysis. (FIG. 16A) Cd5l expression of single-cells from in-vitro generated and in-vivo sorted Th17 cells (IL-17.GFP+) from mice at the peak of EAE. […] (FIG. 16D-FIG. 16F) Validation of CD5L expression in vitro. Naïve T cells (CD4+CD62L+CD44−CD25−) were sorted and differentiated as indicated and analyzed by qPCR for CD5L expression at 48h (D) and 72h (E) and by flow cytometry at 48h (F); (E) IL-23 or control was added at 48h in fresh media. (FIG. 16G-FIG. 16I) Validation of Cd5l expression in vivo. (G,H) IL-17A.GFP reporter mice were immunized to induce EAE. Cells were sorted from spleen (G) and CNS (H) at the peak of disease. Cd5l and Il17a expression are measured by qPCR. Figure shown is representative data of three technical replicates from two independent experiments. (I) Cells were sorted from the gut of naïve mice and the number of RNA transcripts measured by nanostring nCounter platform.
Next, Applicants explored whether CD5L expression is associated with less pathogenic Th17 cells in vivo. Applicants analyzed Th17 cells isolated from mice induced with EAE. […] Next, Applicants analyzed Th17 cells from mesenteric lymph nodes (mLN) and lamina propria (LP) of naïve mice, where Th17 cells contribute to tissue homeostasis and mucosal barrier function. […]

B1: IL-23: recombinant mouse IL-23 (R&D), 20 ng/ml (protein, UniProt Q9EQ14 22-196; P43432 23-335, looked up)
Interleukin-23 subunit alpha: VPRSSSPDWAQCQQLSRNLCMLAWNAHAPAGHMNLLREEEDEETKNNVPRIQCEDGCDPQGLKDNSQFCLQRIRQGLAFYKHLLDSDIFKGEPALLPDSPMEQLHTSLLGLSQLLQPEDHPRETQQMPSLSSSQQWQRPLLRSKILRSLQAFLAIAARVFAHGAATLTEPLVPTA
Interleukin-12 subunit beta: MWELEKDVYVVEVDWTPDAPGETVNLTCDTPEEDDITWTSDQRHGVIGSGKTLTITVKEFLDAGQYTCHKGGETLSHSHLLLHKKENGIWSTEILKNFKNKTFLKCEAPNYSGRFTCSWLVQRNMDLKFNIKSSSSSPDSRAVTCGMASLSAEKVTLDQRDYEKYSVSCQEDVTCPTAEETLPIELALEARQQNKYENYSTSFFIRDIIKPDPPKNLQMKPLKNSQVEVSWEYPDSWSTPHSYFSLKFFVRIQRKKEKMKETEEGCNQKGAFLVEKTSTEVQCKGGNVCVQAQDRYYNSSCSKWACVPCRVRS
- Cd5l expression (qPCR): suppressed
